Kd data for 1 molecule are collected here from paper PMC10558600 (Heliyon, 2023).

Common to all, as to experiment: ELISA
Experiment [1] deals with T1, Cry4Ba-domain III fragment (Bacillus thuringiensis subsp. …).
T1 sequence (P05519 whole entry, looked up): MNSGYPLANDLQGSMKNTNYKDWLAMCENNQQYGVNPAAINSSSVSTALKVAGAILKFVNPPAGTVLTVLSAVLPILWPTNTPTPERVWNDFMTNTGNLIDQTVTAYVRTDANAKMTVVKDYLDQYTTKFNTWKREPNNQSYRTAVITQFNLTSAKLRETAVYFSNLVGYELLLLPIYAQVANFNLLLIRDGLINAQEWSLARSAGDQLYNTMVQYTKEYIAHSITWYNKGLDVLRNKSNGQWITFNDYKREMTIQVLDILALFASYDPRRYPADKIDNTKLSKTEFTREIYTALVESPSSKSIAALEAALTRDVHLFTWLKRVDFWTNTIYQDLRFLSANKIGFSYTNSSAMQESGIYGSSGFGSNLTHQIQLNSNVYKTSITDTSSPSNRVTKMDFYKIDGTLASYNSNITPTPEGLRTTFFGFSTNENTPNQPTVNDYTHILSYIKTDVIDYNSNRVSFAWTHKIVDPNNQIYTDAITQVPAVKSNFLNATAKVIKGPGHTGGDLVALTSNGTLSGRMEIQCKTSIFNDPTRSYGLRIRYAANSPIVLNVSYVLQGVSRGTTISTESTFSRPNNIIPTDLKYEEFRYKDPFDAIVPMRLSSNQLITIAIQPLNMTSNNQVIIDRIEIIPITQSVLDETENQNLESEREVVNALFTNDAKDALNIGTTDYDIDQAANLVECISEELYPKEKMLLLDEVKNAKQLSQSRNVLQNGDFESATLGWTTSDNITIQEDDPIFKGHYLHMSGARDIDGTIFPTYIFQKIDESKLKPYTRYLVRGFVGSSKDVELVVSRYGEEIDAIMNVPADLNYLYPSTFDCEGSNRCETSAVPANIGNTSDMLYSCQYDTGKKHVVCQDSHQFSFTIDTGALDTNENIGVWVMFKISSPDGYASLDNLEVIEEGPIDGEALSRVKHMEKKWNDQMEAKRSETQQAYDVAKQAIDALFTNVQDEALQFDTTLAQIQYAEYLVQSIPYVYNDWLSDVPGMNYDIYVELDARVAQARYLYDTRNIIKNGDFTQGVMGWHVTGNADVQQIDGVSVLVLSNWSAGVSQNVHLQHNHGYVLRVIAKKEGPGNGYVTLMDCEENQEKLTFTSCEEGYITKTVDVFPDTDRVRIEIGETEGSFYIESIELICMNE

The target of experiment [2] is T2, Cry4Ba-domain II fragment (Bacillus thuringiensis subsp. …, UniProt P05519 286-470).
T2 sequence: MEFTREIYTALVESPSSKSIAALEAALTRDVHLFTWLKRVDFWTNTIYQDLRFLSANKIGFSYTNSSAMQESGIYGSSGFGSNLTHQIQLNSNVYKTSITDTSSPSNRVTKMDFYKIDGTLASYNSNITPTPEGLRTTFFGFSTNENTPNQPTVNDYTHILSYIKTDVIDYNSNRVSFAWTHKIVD

Experiment [3] deals with T2, Cry4Ba-domain II fragment. This is another data set of the same source.

Like-named read-outs stand apart in the source and are kept apart here.

B1: Aedes aegypti membrane-bound alkaline phosphatase (Aa-mALP) (receptor)
chain: MTLYRSRAANMSRLRFDVSVWVMVTMCVLSARNCWAQGEYDPNYWNQQAHDLLFEKKDYTMQKVNIAKNIIVFVGSGMSQATVTAARTHKGGENATFPFEQLKWSGNARTYCVDSRVPDSACASTAFLTGVKSNLGTVAVHPNVKRGDCVATSDKVKQLESIAKWALAEGRVVGFATTSRVTAGSNAALYAHSADKDWENDASVTAAGCNATQVNDIAYQLINGDVGKHFKVIFGGGRKNFIPNTETDESGARGLRTDGKNLIQEWKESKTGNAVYITTNSELGALNTTNIDYLMGLFSYDRLPYAADMGEEPNKETPPLVRMVHYSLEMLQKKEHSGGFLLFVEDGNIQEAHKENKPIKAFEQVKHYANAFNMAHMMVSEANTLLISMNDVGSTLSIPGYPARDTDILTEAGTSDKDSKPYLSLAYATGPSYDSYYQPNEGRVNPLAVLQGTPTQKEQTCSAAVPMSEGVNGGEDASVYATGPWAFMFSGGYEQNFIAHAISFASCITDVCGGASSVVVSSAALLLALMVRVFA
Usually Kd stands for the free concentration of one partner at which half of the binding sites on the other are occupied at equilibrium, for simple one-to-one binding. In the case of B1, the Kd in experiment [1] came out at 118 ± 8.1 nM; in experiment [2], 118 nM; in experiment [3], 116 nM.
